Data from US11360104, “Microbial-based biosensors” (TRUSTEES OF BOSTON UNIVERSITY).

Key:
[1] = target: T1, PinR (AIY20223.2, TetR family) (Pimelobacter simplex); assay: FRET; progesterone concentration for half-maximal DNA release; QD/TF/DNA 1/4/18; described as strongest binding sequence; details: tags: C-terminal His6, self-assembled on CdSe/CdS/ZnS quantum dot; label: Cy5 at 5' and 3'
T1 chain: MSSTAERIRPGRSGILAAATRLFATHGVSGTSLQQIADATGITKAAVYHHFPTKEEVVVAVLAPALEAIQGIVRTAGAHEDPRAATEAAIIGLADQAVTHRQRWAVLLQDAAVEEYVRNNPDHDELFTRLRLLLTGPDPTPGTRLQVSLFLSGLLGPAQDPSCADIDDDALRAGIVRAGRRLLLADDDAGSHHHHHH

TetRc-tdTomato [2] = target: T2, TetRc-tdTomato (UniProt P03039 P03039:1-219); assay: FRET; only collisional quenching; details: tags: tdTomato fusion, Strep-tag purified; chain copies: 2; label: Cy5 at 5' and 3' of reverse strand
T2 chain: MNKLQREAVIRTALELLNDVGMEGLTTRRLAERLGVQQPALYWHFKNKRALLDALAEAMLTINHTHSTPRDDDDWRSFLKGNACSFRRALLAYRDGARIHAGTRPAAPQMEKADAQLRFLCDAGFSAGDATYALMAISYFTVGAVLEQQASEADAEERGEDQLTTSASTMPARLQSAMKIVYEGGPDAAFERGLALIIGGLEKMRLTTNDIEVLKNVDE
Protocol: (§1) For QD-based nanoconstructs, the his-tagged proteins self-assemble to the QD surface stoichiometrically according to the mixture ratio with a Poissonian distribution of proteins on the QD surface was used. […] Four his6-TetR monomers were used per QD for the titrations of Sensors 2 and 3 (FIG. 2A-C). […] Upon increasing DNA concentration, there is increased donor quenching in all three cases.
(§2) FRET assays. The FRET response of each sensor as a function of the donor-acceptor ratio was tested by titration of the acceptor while the concentration of the donor was kept constant. Briefly, the sensors were prepared in a solution of TBS+0.2% (w/v) BSA and 1× binding buffer (20 mM Tris-HCl, 5 mM MgCl_2, 5% glycerol, 50 ng/µl salmon sperm DNA). For Sensor 1, the final concentration of tetR-tdTomato was kept constant at 200 nM, while Cy5-modified DNA were titrated to yield donor-acceptor ratios ranging from 0-9. The sensor solution was pipetted into wells of a black, non-binding 384-well plate (Corning) with a final volume of 60 µl. For triplicate measurements, each of the above solutions were prepared with a final volume of 180 µl in microcentrifuge tubes and pipetted into 3 separate wells of 60 µl each.

TetRc-6His [3] = target: T3, TetRc-6His (UniProt P03039 P03039:1-219); assay: FRET; only collisional quenching; details: tags: His6, on quantum dot QD1; chain copies: 2; label: Cy5 at 5' and 3' of reverse strand
T3 chain: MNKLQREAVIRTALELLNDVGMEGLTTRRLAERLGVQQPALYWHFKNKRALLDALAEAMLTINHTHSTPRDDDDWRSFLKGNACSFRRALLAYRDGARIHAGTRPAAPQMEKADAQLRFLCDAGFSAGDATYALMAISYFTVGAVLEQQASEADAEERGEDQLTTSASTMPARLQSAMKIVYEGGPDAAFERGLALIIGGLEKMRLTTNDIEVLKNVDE
Protocol: as §1, §2
(§3) For Sensors 2 and 3, QDs and tetR-6His were mixed at a 1:4 ratio with a final QD concentration of 50 nM for self-assembly of the tetR-6His to the surface of the QDs[21]. […]

TetRd-6His [4] = target: T4, TetRd-6His (UniProt P0ACT4 P0ACT4:2-218); assay: FRET; only collisional quenching; details: tags: His6, on quantum dot QD2; chain copies: 2; label: Cy5 at 5' and 3' of reverse strand
Protocol: as §1, §2, §3

[5] = target: T1, PinR (AIY20223.2, TetR family); assay: FRET; progesterone for half-maximal DNA release; QD/TF/DNA 1/4/18; details: tags: C-terminal His6, self-assembled on CdSe/CdS/ZnS quantum dot; label: Cy5 at 5' and 3'
TetRc-tdTomato [6] = target: T2, TetRc-tdTomato; assay: FRET; aTc concentration for half-maximal DNA release; 5 mM MgCl2; details: tags: tdTomato fusion, Strep-tag purified; chain copies: 2; label: Cy5 at 5' and 3' of reverse strand
Protocol: (§4) At higher concentrations of aTc, binding of the TF and DNA is disrupted, reducing FRET, thereby increasing donor emission and reducing acceptor emission. Spectra are background subtracted to eliminate the effects of direct acceptor excitation. FIG. 3D-3F show the ratio of acceptor fluorescence intensity to donor fluorescence intensity as a function of aTc concentration. […] Sensor 1 was prepared with a 1:1:3 ratio of tdTomato:TF:DNA, while sensors 2 and 3 were prepared with a 1:4:18 ratio of QD:TF:DNA. tdTomato (200 nM) and QD (50 nM) concentrations were selected to keep TF concentration constant at 200 nM. Data are mean±standard deviation for n=3.
(§5) A TF to DNA ratio was chosen for each sensor (1:3 for Sensor 1, 1:4.5 for Sensors 2 and 3) and kept constant for subsequent experiments testing sensor sensitivity to aTc. Photoluminescence spectra were measured from sensors with increasing concentrations of aTc yielded changes in the ratio between the acceptor emission and donor emission (F_A/F_D). With increasing concentrations of aTc, F_A/F_D values decreased indicating unbinding of the DNA from the TF resulting in an increase in donor emission and decrease in acceptor emission (FIG. 3A-F). No changes were observed when aTc was titrated into a solution of non-binding donor-acceptor pairs (scrambled controls). […]

TetRc-6His [7] = target: T3, TetRc-6His; assay: as above; details: tags: His6, on quantum dot QD1; chain copies: 2; label: Cy5 at 5' and 3' of reverse strand
Protocol: as §4, §5

TetRd-6His [8] = target: T4, TetRd-6His; assay: FRET; aTc for half-maximal DNA release; lower DNA affinity than TetRc; 5 mM MgCl2; details: tags: His6, on quantum dot QD2; chain copies: 2; label: Cy5 at 5' and 3' of reverse strand

T4 sequence (P0ACT4 2-218, one chain of several): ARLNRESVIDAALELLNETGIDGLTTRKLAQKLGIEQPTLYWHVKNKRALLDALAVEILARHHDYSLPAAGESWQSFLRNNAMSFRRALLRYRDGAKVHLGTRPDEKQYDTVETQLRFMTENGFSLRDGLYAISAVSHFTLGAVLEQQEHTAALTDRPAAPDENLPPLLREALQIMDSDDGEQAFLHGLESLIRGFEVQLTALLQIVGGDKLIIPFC

B1: DNA1 (AIY20223.2) (dsDNA)
DNA 1: GCCTAACTAGCCGTTCGGCTAGTTATTC
DNA 2: GAATAACTAGCCGAACGGCTAGTTAGGC
[1]
  IC50: 460 nM

B2: Scrambled TetO control (dsDNA)
DNA 1: TCGTGAAACCGAGCGAGGGACACGCACA
DNA 2: TGTGCGTGTCCCTCGCTCGGTTTCACGA
TetRc-tdTomato [2]
  binding result: no binding
TetRc-6His [3]
  binding result: no binding
TetRd-6His [4]
  binding result: no binding

B3: DNA2 (IG.AIY19519.15) (dsDNA)
DNA 1: GCCTAACTAGCCGATCGGCTAGTCATTC
DNA 2: GAATGACTAGCCGATCGGCTAGTTAGGC
[5]
  IC50: 370 nM

B4: DNA3 (AIY20222.2) (dsDNA)
DNA 1: GCCTAACTAGCCGTTCGGCAAGTAATTC
DNA 2: GAATTACTTGCCGAACGGCTAGTTAGGC
[5]
  IC50: 290 nM

B5: DNA4 (13,15-T,T) (dsDNA)
DNA 1: CCTTAACTAGCCGTTCTGTTAGTTATTC
DNA 2: GAATAACTAACAGAACGGCTAGTTAAGG
[5]
  IC50: 150 nM

B6: TetO 28 bp (dsDNA)
DNA 1: GTCATCCCTATCATTGATAGAGATACTG
DNA 2: CAGTATCTCTATCAATGATAGGGATGAC
TetRc-tdTomato [6]
  EC50: 218 nM
TetRc-6His [7]
  EC50: 699 nM
TetRd-6His [8]
  EC50: 133 nM
